The text below walks through data of patent JP2012050437A.

Assay [1] deals with aggregated synthetic Aβ1-42 (human) (UniProt P05067). The assay can be described thus: competition Aβ1-42 ELISA; competitor biotin-conjugated m12A11Cγ2a at a fixed concentration.
The target in assay [2] is Aβ peptide (bio-DAE peptide). Put plainly: Biacore (data not shown); the immobilised Aβ antigen is not given.

B1: humanized 12A11 antibody, version 1 (antibody, V domains shown)
VH: QVQLVESGGGVVQPGRSLRLSCAFSGFSLSTSGMSVGWIRQAPGKGLEWLAHIWWDDDKYYNPSLKSRLTISKDTSKNTVYLQMNSLRAEDTAVYYCARRTTTADYFAYWGQGTTVTVSS
VL: DVVMTQSPLSLPVTPGEPASISCRSSQSIVHSNGNTYLEWYLQKPGQSPQLLIYKVSNRFSGVPDRFSGSGSGTDFTLKISRVEAEDVGVYYCFQSSHVPLTFGQGTKLEIK
In the case of B1, the fold of IC50 against murine and chimeric 12A11 in assay [1] was < 2 fold. The same molecule registered a Kd in assay [2] of 23 nM.
